Measured values: patent US20260248972A1, “DUAL RECEPTOR TARGETING RADIOLIGANDS AND USES THEREOF RELATED APPLICATIONS” (priority 2022, published 2026)
*1 amine or outer side, *2 acyl side, *3 side chain or, on linkers, in order; H or OH if unused. Where a SMILES comes first, the peptide text is derived from it. Bridges are numbered along the chain shown (N, C = ends). Side-chain parts run from the residue outwards. [ ]: non-standard residue; d: D form. The star is where a group is joined. X1 = CC(C)(C)C(=O)CN1C(=O)[C@H](N*)CN(C2CCCCC2)c2ccccc21; DOTA = O=C(O)CN1CCN(CC(=O)O)CCN(CC(=O)*)CCN(CC(=O)O)CC1; 3Abz = Nc1cccc(C(=O)O)c1; CO = O=C([*:1])[*:2]

Experiment: in vivo
Details: BALB/c nude, mouse, in vivo, iv, total radioactivity
Description: To a 0.5 M NaOAc buffer (20-50 μL, pH=4.5) was added 4 μL of exemplary or comparator compound in DMSO stock solution (2000 μM) and 2 mCi ^177Lu (ITM Isotope Technologies Munich), the resulting mixture was heated to 95° C. for 15 min. The resulting product was analyzed by radio-TLC and radio-HPLC (column: Shim-pack GIST 5 μm 4.6*150 mm; buffer A: 0.2% formic acid H2O; buffer B: 0.1% formic acid acetonitrile; flow rate: 1 mL/min; gradient: 0-5 min: 10% B to 95% B; then 5-8 min: 95% B). The labelled products were used immediately or diluted by a PBS buffer containing freshly added 3 mg/mL ascorbate.
All animal care and experimental procedure were performed by following the animal protocols approved by the ethics committee of China Institute of Radiation Protection. The BALB/c nude mice (Charles River, Beijing) were utilized for these studies. Mice were below 5 per cage in sterile, microisolator cages under temperature- and humidity-controlled conditions with a 12 h light/12 h dark schedule and fed irradiated rodent chow and reverse osmosis (RO) sterile water ad libitum. In preparation for tumor cell inoculations, mice were anesthetized with isoflurane (RWD Life Science Inc.) at an induction rate of 4% and maintained at a rate of 2.5% with 0.4 L oxygen delivered via precision vaporizer and a non-rebreathing apparatus. These mice received subcutaneous rear flank injections of approximately 4×10^6 AR42J cells ([…] pancreatic cancer cell line) suspended in 200 μL of phosphate-buffered saline (PBS) and Matrigel (Corning) (1/1). Xenografted tumors were allowed to grow for ~2-4 weeks post-inoculation and ranged in mass from 0.05 to 0.50 g (average tumor size, 0.20 g). […] The mice were euthanized, and the tissues and organs were excised from the animals at 4, 24 and 72 h post-injection. The tissues and organs were weighed, counted in a PerkinElmer 2480 WIZARD2 γ counter, and the percent injected dose (% ID) and % ID/g of each organ or tissue were calculated.

Molecule `C[C@@H](O)[C@H](NC(=O)[C@@H]1CSSC[C@H](NC(=O)[C@@H](Cc2ccccc2)NC(=O)CNC(=O)[C@H](CO)NC(=O)CNC(=O)[C@H](CCCCNC(=O)c2cccc(NC(=O)N[C@@H]3CN(C4CCCCC4)c4ccccc4N(CC(=O)C(C)(C)C)C3=O)c2)NC(=O)CN2CCN(CC(=O)O)CCN(CC(=O)O)CCN(CC(=O)O)CC2)C(=O)N[C@@H](Cc2ccc(O)cc2)C(=O)N[C@H](Cc2c[nH]c3ccccc23)C(=O)N[C@@H](CCCCN)C(=O)N[C@@H]([C@@H](C)O)C(=O)N1)C(=O)O` [Compound I-54, DOTA-K(Z360)-G-S-G-f[CYwKTC]T-OH] ({DOTA}-K([3Abz-CO-X1])GSG[dF]CY[dW]KTCT-OH; disulfide 6-11) has a tissue to tissue ratio at 24 h (T/K Tumor/Kidney ratio) of 2.4, a tissue to tissue ratio at 24 h (T/L Tumor/Liver ratio) of 2.7 and a tissue to tissue ratio at 24 h (T/P Tumor/Pancreas ratio) of 9.7. It also gave a tissue to tissue ratio at 24 h (T/Sp Tumor/Spleen ratio) of 36, a tissue to tissue ratio at 24 h (T/St Tumor/Stomach ratio) of 6.3 and a tissue uptake at 24 h (uptake Kidney) of 10.5 %ID/g. It also gave a tissue uptake at 24 h (uptake Liver) of 9.6 %ID/g, a tissue uptake at 24 h (uptake Pancreas) of 2.65 %ID/g and a tissue uptake at 24 h (uptake Spleen) of 0.71 %ID/g. The tissue uptake at 24 h (uptake Stomach) was 4.1 %ID/g and the tissue uptake at 24 h (uptake Tumor) was 25.8 %ID/g.

With `C[C@@H](O)[C@H](NC(=O)[C@@H]1CSSC[C@H](NC(=O)[C@@H](Cc2ccccc2)NC(=O)CNC(=O)[C@H]2CCCN2C(=O)CNC(=O)[C@H]2CCCN2C(=O)CNC(=O)[C@H](CCCCNC(=O)c2cccc(NC(=O)N[C@@H]3CN(C4CCCCC4)c4ccccc4N(CC(=O)C(C)(C)C)C3=O)c2)NC(=O)CN2CCN(CC(=O)O)CCN(CC(=O)O)CCN(CC(=O)O)CC2)C(=O)N[C@@H](Cc2ccc(O)cc2)C(=O)N[C@H](Cc2c[nH]c3ccccc23)C(=O)N[C@@H](CCCCN)C(=O)N[C@@H]([C@@H](C)O)C(=O)N1)C(=O)O` [Compound I-55, DOTA-K(Z360)-G-p-G-p-G-f[CYwKTC]T-OH] ({DOTA}-K([3Abz-CO-X1])G[dP]G[dP]G[dF]CY[dW]KTCT-OH; disulfide 8-13) the tissue to tissue ratio at 24 h (T/K Tumor/Kidney ratio) was 1.1, the tissue to tissue ratio at 24 h (T/L Tumor/Liver ratio) was 2.5 and the tissue to tissue ratio at 24 h (T/P Tumor/Pancreas ratio) was 14. The tissue to tissue ratio at 24 h (T/Sp Tumor/Spleen ratio) was 34, the tissue to tissue ratio at 24 h (T/St Tumor/Stomach ratio) was 7.3 and the tissue uptake at 24 h (uptake Kidney) was 20.8 %ID/g. It also gave a tissue uptake at 24 h (uptake Liver) of 9.21 %ID/g, a tissue uptake at 24 h (uptake Pancreas) of 1.66 %ID/g and a tissue uptake at 24 h (uptake Spleen) of 0.67 %ID/g. It also gave a tissue uptake at 24 h (uptake Stomach) of 3.13 %ID/g and a tissue uptake at 24 h (uptake Tumor) of 23 %ID/g.

With `C[C@@H](O)[C@H](NC(=O)[C@@H]1CSSC[C@H](NC(=O)[C@@H](Cc2ccccc2)NC(=O)CCCCCCCNC(=O)[C@H](CCCCNC(=O)c2cccc(NC(=O)N[C@@H]3CN(C4CCCCC4)c4ccccc4N(CC(=O)C(C)(C)C)C3=O)c2)NC(=O)CN2CCN(CC(=O)O)CCN(CC(=O)O)CCN(CC(=O)O)CC2)C(=O)N[C@@H](Cc2ccc(O)cc2)C(=O)N[C@H](Cc2c[nH]c3ccccc23)C(=O)N[C@@H](CCCCN)C(=O)N[C@@H]([C@@H](C)O)C(=O)N1)C(=O)O` [Compound I-61, DOTA-K(Z360)-Aoc-f[CYwKTC]T-OH] the tissue to tissue ratio at 24 h (T/K Tumor/Kidney ratio) was 3.5, the tissue to tissue ratio at 24 h (T/L Tumor/Liver ratio) was 0.1 and the tissue to tissue ratio at 24 h (T/P Tumor/Pancreas ratio) was 16. It also gave a tissue to tissue ratio at 24 h (T/Sp Tumor/Spleen ratio) of 0.2, a tissue to tissue ratio at 24 h (T/St Tumor/Stomach ratio) of 4.5 and a tissue uptake at 24 h (uptake Kidney) of 1.53 %ID/g. For the same molecule, the tissue uptake at 24 h (uptake Liver) was 53.3 %ID/g, the tissue uptake at 24 h (uptake Pancreas) was 0.34 %ID/g and the tissue uptake at 24 h (uptake Spleen) was 28.3 %ID/g. For the same molecule, the tissue uptake at 24 h (uptake Stomach) was 1.21 %ID/g and the tissue uptake at 24 h (uptake Tumor) was 5.41 %ID/g.

Work on `C[C@@H](O)[C@H](NC(=O)[C@@H]1CSSC[C@H](NC(=O)[C@@H](Cc2ccccc2)NC(=O)[C@H](CCCCNC(=O)c2cccc(NC(=O)N[C@@H]3CN(C4CCCCC4)c4ccccc4N(CC(=O)C(C)(C)C)C3=O)c2)NC(=O)[C@H](CCCNC(=N)N)NC(=O)CN2CCN(CC(=O)O)CCN(CC(=O)O)CCN(CC(=O)O)CC2)C(=O)N[C@@H](Cc2ccc(O)cc2)C(=O)N[C@H](Cc2c[nH]c3ccccc23)C(=O)N[C@@H](CCCCN)C(=O)N[C@@H]([C@@H](C)O)C(=O)N1)C(=O)O` [Compound I-62, DOTA-R-K(Z360)-f[CYwKTC]T-OH] ({DOTA}-RK([3Abz-CO-X1])[dF]CY[dW]KTCT-OH; disulfide 4-9) yielded a tissue to tissue ratio at 24 h (T/K Tumor/Kidney ratio) of 0.7, a tissue to tissue ratio at 24 h (T/L Tumor/Liver ratio) of 0.3 and a tissue to tissue ratio at 24 h (T/P Tumor/Pancreas ratio) of 6.1. For the same molecule, the tissue to tissue ratio at 24 h (T/Sp Tumor/Spleen ratio) was 13, the tissue to tissue ratio at 24 h (T/St Tumor/Stomach ratio) was 6.4 and the tissue uptake at 24 h (uptake Kidney) was 14.7 %ID/g. It also gave a tissue uptake at 24 h (uptake Liver) of 32.4 %ID/g, a tissue uptake at 24 h (uptake Pancreas) of 1.78 %ID/g and a tissue uptake at 24 h (uptake Spleen) of 0.82 %ID/g. The tissue uptake at 24 h (uptake Stomach) was 1.68 %ID/g and the tissue uptake at 24 h (uptake Tumor) was 10.8 %ID/g.

`C[C@@H](O)[C@H](NC(=O)[C@@H]1CSSC[C@H](NC(=O)[C@@H](Cc2ccccc2)NC(=O)COCCOCCNC(=O)[C@H](CCCCNC(=O)CCC(C(=O)O)N2CCN(CC(=O)O)CCN(CC(=O)O)CCN(CC(=O)O)CC2)NC(=O)COCCOCCNC(=O)CC[C@H](NC(=O)CC[C@H](NC(=O)c2cccc(NC(=O)N[C@@H]3CN(C4CCCCC4)c4ccccc4N(CC(=O)C(C)(C)C)C3=O)c2)C(=O)O)C(=O)O)C(=O)N[C@@H](Cc2ccc(O)cc2)C(=O)N[C@H](Cc2c[nH]c3ccccc23)C(=O)N[C@@H](CCCCN)C(=O)N[C@@H]([C@@H](C)O)C(=O)N1)C(=O)O` (some centres unmarked) [^177Lu-1-13, metal not drawn] showed a tissue uptake at 4 h (% ID/g Adrenal gland) of 3.6 %ID/g, a tissue uptake at 24 h (% ID/g Adrenal gland) of 0.81 %ID/g and a tissue uptake at 72 h (% ID/g Adrenal gland) of 0.73 %ID/g. For the same molecule, the tissue uptake at 4 h (% ID/g Blood) was 0.64 %ID/g, the tissue uptake at 24 h (% ID/g Blood) was 0.09 %ID/g and the tissue uptake at 72 h (% ID/g Blood) was 0.03 %ID/g. It also gave a tissue uptake at 4 h (% ID/g Femur) of 0.21 %ID/g, a tissue uptake at 24 h (% ID/g Femur) of 0.27 %ID/g and a tissue uptake at 72 h (% ID/g Femur) of 0.14 %ID/g. The tissue uptake at 4 h (% ID/g Heart) was 0.54 %ID/g, the tissue uptake at 24 h (% ID/g Heart) was 0.19 %ID/g and the tissue uptake at 72 h (% ID/g Heart) was 0.11 %ID/g. The tissue uptake at 4 h (% ID/g Intestine) was 0.89 %ID/g, the tissue uptake at 24 h (% ID/g Intestine) was 0.37 %ID/g and the tissue uptake at 72 h (% ID/g Intestine) was 0.22 %ID/g. It also gave a tissue uptake at 4 h (% ID/g Kidney) of 58.6 %ID/g, a tissue uptake at 24 h (% ID/g Kidney) of 46.7 %ID/g and a tissue uptake at 72 h (% ID/g Kidney) of 22.5 %ID/g. It also gave a tissue uptake at 4 h (% ID/g Liver) of 0.79 %ID/g, a tissue uptake at 24 h (% ID/g Liver) of 1.21 %ID/g and a tissue uptake at 72 h (% ID/g Liver) of 0.52 %ID/g. It also gave a tissue uptake at 4 h (% ID/g Lung) of 1.57 %ID/g, a tissue uptake at 24 h (% ID/g Lung) of 0.43 %ID/g and a tissue uptake at 72 h (% ID/g Lung) of 0.38 %ID/g. It also gave a tissue uptake at 4 h (% ID/g Muscle) of 0.08 %ID/g, a tissue uptake at 24 h (% ID/g Muscle) of 0.08 %ID/g and a tissue uptake at 72 h (% ID/g Muscle) of 0.05 %ID/g. For the same molecule, the tissue uptake at 4 h (% ID/g Pancreas) was 1.59 %ID/g, the tissue uptake at 24 h (% ID/g Pancreas) was 1.21 %ID/g and the tissue uptake at 72 h (% ID/g Pancreas) was 0.91 %ID/g. The tissue uptake at 4 h (% ID/g Spleen) was 0.43 %ID/g, the tissue uptake at 24 h (% ID/g Spleen) was 0.47 %ID/g and the tissue uptake at 72 h (% ID/g Spleen) was 0.64 %ID/g. It also gave a tissue uptake at 4 h (% ID/g Stomach) of 2.23 %ID/g, a tissue uptake at 24 h (% ID/g Stomach) of 2.19 %ID/g and a tissue uptake at 72 h (% ID/g Stomach) of 1.95 %ID/g. For the same molecule, the tissue uptake at 4 h (% ID/g Tumor) was 14.6 %ID/g, the tissue uptake at 24 h (% ID/g Tumor) was 14.8 %ID/g and the tissue uptake at 72 h (% ID/g Tumor) was 6.83 %ID/g.
